Results reported in publication PMC6325239 (Nature Communications, 2019).

Target: T1, Munc13-1 MUN domain (residues 933–1407, EF, 1453–1531) (rat, UniProt Q62768 933-1407; Q62768 1453-1531)
T1 construct: Munc13-1, rat, residues 933-1407; linker that replaces residues 1408-1452; Munc13-1, rat, residues 1453-1531; Used in native PAGE, crystallization and, as far as told, fluorescence anisotropy; also called the MUN domain; source: E. coli BL21 DE3, pGEX-KG, purified (glutathione Sepharose, thrombin, SEC, ion exchange)
Test: crystal structure; MUN crystals (20% PEG 3350, 0.1 M MES pH 5.8–6.3, 0.2 M Mg(NO3)2, 4 °C) soaked with the LR peptide at 1:4 (MUN:peptide); 2.8 Å
Conditions: both partners purified

B1: Syb2 linker region peptide (residues 75–93 of Syb2) (peptide)
peptide: SQFETSAAKLKRKYWWKNL
notes: synaptobrevin-2 (Syb2), residues 75-93; also called LR; Syb2 peptide; source: synthetic peptide (Scilight Biotechnology, Beijing)
- binding result: binds
